The target in this data set is T1, Dpo1 exo- (SsoDpo1, B-family DNA polymerase) (Sulfolobus solfataricus, UniProt P26811 1-882, D231A;D318A).
T1 sequence: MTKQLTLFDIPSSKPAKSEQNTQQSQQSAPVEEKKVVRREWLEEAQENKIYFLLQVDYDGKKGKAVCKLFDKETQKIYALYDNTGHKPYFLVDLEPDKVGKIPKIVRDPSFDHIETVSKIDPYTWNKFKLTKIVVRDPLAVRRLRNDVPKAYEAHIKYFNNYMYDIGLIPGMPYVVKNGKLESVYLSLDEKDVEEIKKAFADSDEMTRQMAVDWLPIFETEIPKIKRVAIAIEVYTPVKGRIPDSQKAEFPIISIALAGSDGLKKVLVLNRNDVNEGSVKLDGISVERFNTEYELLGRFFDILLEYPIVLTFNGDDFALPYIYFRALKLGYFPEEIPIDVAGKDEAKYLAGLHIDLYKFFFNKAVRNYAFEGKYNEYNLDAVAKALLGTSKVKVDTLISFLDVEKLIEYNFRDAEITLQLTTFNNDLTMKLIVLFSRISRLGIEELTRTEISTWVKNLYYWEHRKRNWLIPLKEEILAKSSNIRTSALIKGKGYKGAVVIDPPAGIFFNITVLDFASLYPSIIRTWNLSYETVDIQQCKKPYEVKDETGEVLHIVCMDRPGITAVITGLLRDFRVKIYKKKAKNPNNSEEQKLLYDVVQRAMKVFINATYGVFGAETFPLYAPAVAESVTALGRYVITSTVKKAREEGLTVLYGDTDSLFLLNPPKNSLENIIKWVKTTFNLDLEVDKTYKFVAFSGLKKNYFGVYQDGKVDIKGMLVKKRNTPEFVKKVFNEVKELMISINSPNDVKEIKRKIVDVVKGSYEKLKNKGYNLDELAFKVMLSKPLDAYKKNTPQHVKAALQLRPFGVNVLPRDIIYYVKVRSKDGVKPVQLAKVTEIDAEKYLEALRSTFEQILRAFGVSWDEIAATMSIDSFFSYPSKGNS
The data set can be described thus: fluorescence anisotropy.

B1: 37-nt hairpin primer-template, 5'-Cy3 (structured_DNA)
DNA: TTTTTTTTTTCCCGGGCCGGCGTTTCGCCGGCCCGGG
In the case of B1, the affinity, expressed as Kd, was 113 ± 32 nM.

These data come from PMC3477848 (Biochemistry, 2012).
